Bridges are numbered along the chain shown (N, C = ends). Where no end group is shown, it is not given here. [ ]: non-standard residue; d: D form. The star is where a group is joined. Acetyl(2-(4-imidazolyl)) = O=C(Cc1c[nH]cn1)*; Aib = CC(C)(N)C(=O)O
T1: human GIP receptor (human, UniProt P48546 22-466)
T1 sequence (looked up): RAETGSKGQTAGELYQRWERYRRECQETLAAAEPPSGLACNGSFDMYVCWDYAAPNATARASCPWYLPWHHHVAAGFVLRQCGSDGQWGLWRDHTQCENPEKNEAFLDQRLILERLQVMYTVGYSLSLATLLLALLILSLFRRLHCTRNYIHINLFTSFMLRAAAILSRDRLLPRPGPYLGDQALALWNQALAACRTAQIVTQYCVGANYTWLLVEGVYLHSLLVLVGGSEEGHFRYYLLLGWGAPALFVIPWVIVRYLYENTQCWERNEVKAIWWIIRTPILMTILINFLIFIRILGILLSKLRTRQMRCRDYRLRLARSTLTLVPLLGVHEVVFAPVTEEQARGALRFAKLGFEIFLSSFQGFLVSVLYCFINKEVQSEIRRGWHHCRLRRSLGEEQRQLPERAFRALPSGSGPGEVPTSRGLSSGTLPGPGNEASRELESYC


Legend:
Experiment in all cases: cell-based or functional assay
human GIP receptor = target: T1, human GIP receptor
human GLP-1 receptor = human GLP-1 receptor (human, UniProt P43220 24-463)
human GCG receptor = human GCG receptor (human, UniProt P47871 26-477)
Chain of human GCG receptor (P47871 26-477): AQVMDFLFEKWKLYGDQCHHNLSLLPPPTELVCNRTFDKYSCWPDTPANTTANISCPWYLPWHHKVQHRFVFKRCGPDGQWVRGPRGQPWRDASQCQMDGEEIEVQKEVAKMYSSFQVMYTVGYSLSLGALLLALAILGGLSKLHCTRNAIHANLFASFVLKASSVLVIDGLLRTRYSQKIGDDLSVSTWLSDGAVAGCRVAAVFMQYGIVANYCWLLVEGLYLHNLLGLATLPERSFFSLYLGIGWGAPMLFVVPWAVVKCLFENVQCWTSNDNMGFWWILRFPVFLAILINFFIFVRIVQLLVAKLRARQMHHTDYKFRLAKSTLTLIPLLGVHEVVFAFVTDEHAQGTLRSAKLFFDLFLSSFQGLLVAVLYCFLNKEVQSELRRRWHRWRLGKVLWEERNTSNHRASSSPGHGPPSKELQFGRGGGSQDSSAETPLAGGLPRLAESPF

Row | Binder | In vitro activity relative to native peptide (%) vs. GIP (human GIP receptor) | In vitro activity relative to native peptide (%) vs. GLP-1 (human GLP-1 receptor) | In vitro activity relative to native peptide (%) vs. Glucagon (human GCG receptor)
1 | HGQGTFTSDCSKQLDGQAAQEFVAWLLAGGPSSGAPPPS [triple agonist of SEQ ID NO: 44] | < 0.1% | 1.3% | < 0.1%
2 | HGQGTFTSDCSKYMDGQAAQDFVAWLLAGGPSSGAPPPS [triple agonist of SEQ ID NO: 45] | < 0.1% | 6.6% | < 0.1%
3 | HGQGTFTSDCSKYLDEQHAQEFVAWLLAGGPSSGAPPPS [triple agonist of SEQ ID NO: 46] | < 0.1% | 1.4% | < 0.1%
4 | HGQGTFTSDCSKYLDGQRAQEFVAWLLAGGPSSGAPPPS [triple agonist of SEQ ID NO: 47] | < 0.1% | 2.4% | < 0.1%
5 | HGQGTFTSDCSKYLDGQRAQDFVNWLLAGGPSSGAPPPS [triple agonist of SEQ ID NO: 48] | < 0.1% | 1.5% | < 0.1%
6 | [Acetyl(2-(4-imidazolyl))][Aib]QGTFTSDYSICMDEIHQKDFVNWLLNTK (bridge 16-20; not fully specified) [triple agonist of SEQ ID NO: 49] | 3.3% | 29.8% | < 0.1%
7 | H[Aib]QGTFTSDYSKYLDEKRAKEFVQWLLDHHPSSGQPPPSC (bridge 16-20) [triple agonist of SEQ ID NO: 50] | 2.7% | 67.4% | 50.5%
8 | H[Aib]QGTFTSDYSKYLDEKRQKEFVQWLLNTC (bridge 16-20) [triple agonist of SEQ ID NO: 51] | 0.1% | 14.4% | 2%
9 | H[Aib]QGTFTSDYSKYLDEKRQKEFVQWLLDTC (bridge 16-20) [triple agonist of SEQ ID NO: 52] | 0.3% | 44.1% | 7.5%
10 | H[Aib]EGTFTSDYSIAMDEIHQKDFVNWLLAQC (bridge 16-20) [triple agonist of SEQ ID NO: 53] | 1.3% | 161% | 8.4%
11 | H[Aib]QGTFTSDVSSYLDGQAAKEFVAWLLKGC [triple agonist of SEQ ID NO: 6] | < 0.1% | 17% | < 0.1%
12 | H[Aib]EGTFTSDYSIAMDEIHQKDFVDWLLAEC (bridge 16-20) [triple agonist of SEQ ID NO: 54] | 0.1% | 30.6% | 1.4%
13 | H[Aib]QGTFTSDYSIAMDEIHQKDFVNWLLAQC (bridge 16-20) [triple agonist of SEQ ID NO: 55] | 2.4% | 27.1% | 0.7%
14 | H[Aib]QGTFTSDYSKYLDEKRQKEFVNWLLAQC (bridge 16-20) [triple agonist of SEQ ID NO: 56] | 0.8% | 57.9% | 4.9%
15 | H[Aib]QGTFTSDYSIAMDEIHQKDFVNWLLNTC (bridge 16-20) [triple agonist of SEQ ID NO: 57] | 0.3% | 11.7% | < 0.1%
16 | H[Aib]QGTFTSDYSKYLDEKRQKEFVQWLLNTKC (bridge 16-20) [triple agonist of SEQ ID NO: 58] | 0.2% | 39.1% | 2.6%
17 | [Acetyl(2-(4-imidazolyl))][Aib]QGTFTSDYSICMDEKHQKDFVNWLLNTK (bridge 16-20; not fully specified) [triple agonist of SEQ ID NO: 59] | 4% | 40.3% | < 0.1%
18 | [Acetyl(2-(4-imidazolyl))][Aib]QGTFTSDYSIAMDEKHCKDFVNWLLNTK (bridge 16-20; not fully specified) [triple agonist of SEQ ID NO: 60] | 8.2% | 106% | < 0.1%
19 | [Acetyl(2-(4-imidazolyl))][Aib]QGTFTSDYSIAMDEIACKDFVNWLLNTK (bridge 16-20; not fully specified) [triple agonist of SEQ ID NO: 61] | 2.8% | 59.8% | < 0.1%
20 | [Acetyl(2-(4-imidazolyl))][Aib]QGTFTSDKSKYLDERAAQDFVQWLLDGGPSSGAPPPS [triple agonist of SEQ ID NO: 62] | < 0.1% | 5.2% | < 0.1%
21 | [Acetyl(2-(4-imidazolyl))][Aib]QGTFTSDCSKYLDERAAQDFVQWLLDGGPSSGAPPPS [triple agonist of SEQ ID NO: 63] | < 0.1% | 15.3% | < 0.1%
22 | H[Aib]QGTFTSDVSKYLDGQAAKEFVAWLLKGC [triple agonist of SEQ ID NO: 7] | < 0.1% | 13.7% | < 0.1%
23 | Y[Aib]QGTFTSDYSKYLDECAAKEFVQWLLDHHPSSGQPPPS (bridge 16-20) [triple agonist of SEQ ID NO: 64] | 92.9% | 64.6% | 60.1%
24 | H[Aib]QGTFTSDYSKCLDEKRAKEFVQWLLDHHPSSGQPPPS (bridge 16-20) [triple agonist of SEQ ID NO: 65] | 11.6% | 95.4% | 25.2%
25 | Y[Aib]QGTFTSDYSKYLDECRAKDFVQWLLDHHPSSGQPPPS (bridge 16-20) [triple agonist of SEQ ID NO: 66] | 17.2% | 15.8% | 172%
26 | Y[Aib]QGTFTSDYSKYLDECAAKDFVQWLLDHHPSSGQPPPS (bridge 16-20) [triple agonist of SEQ ID NO: 67] | 39.8% | 28.5% | 46.2%
27 | Y[Aib]QGTFTSDYSKCLDEKAAKEFVQWLLDHHPSSGQPPPS (bridge 16-20) [triple agonist of SEQ ID NO: 68] | 107% | 27.9% | 8.8%
28 | Y[Aib]QGTFTSDYSKCLDERAAKEFVQWLLDHHPSSGQPPPS (bridge 16-20) [triple agonist of SEQ ID NO: 69] | 62.8% | 24.3% | 9.6%
29 | Y[Aib]QGTFTSDYSKCLDEKRAKDFVQWLLDHHPSSGQPPPS (bridge 16-20) [triple agonist of SEQ ID NO: 70] | 64.4% | 15.1% | 71.3%
30 | Y[Aib]QGTFTSDYSKYLDERACKDFVQWLLDHHPSSGQPPPS (bridge 16-20) [triple agonist of SEQ ID NO: 71] | 94.7% | 90.1% | 12.7%

From patent US20230302148A1, “PHARMACEUTICAL COMPOSITION COMPRISING LONG-ACTING CONJUGATE OF TRIPLE GLUCAGON/GLP-1/GIP RECEPTOR AGONIST” (HANMI PHARM. CO., LTD., priority 2020, published 2023)
